One protein from publication doi:10.1101/569251 (bioRxiv, 2019) can be followed below.

This data set concerns the molecule itself.

B1: SEPT7 (residues 29-437) with N-terminal His-tag (domain or fragment, human, UniProt Q16181-1 29-437, looked up)
chain: GYVGFANLPNQVYRKSVKRGFEFTLMVVGESGLGKSTLINSLFLTDLYSPEYPGPSHRIKKTVQVEQSKVLIKEGGVQLLLTIVDTPGFGDAVDNSNCWQPVIDYIDSKFEDYLNAESRVNRRQMPDNRVQCCLYFIAPSGHGLKPLDIEFMKRLHEKVNIIPLIAKADTLTPEECQQFKKQIMKEIQEHKIKIYEFPETDDEEENKLVKKIKDRLPLAVVGSNTIIEVNGKRVRGRQYPWGVAEVENGEHCDFTILRNMLIRTHMQDLKDVTNNVHYENYRSRKLAAVTYNGVDNNKNKGQLTKSPLAQMEEERREHVAKMKKMEMEMEQVFEMKVKEKVQKLKDSEAELQRRHEQMKKNLEAQHKELEEKRRQFEDEKANWEAQQRILEQQNSSRTLEKNKKKGKIF
B1: the binding result is “binds”.
